Laboratory results taken from patent US20220288193A1.

Tests used:
[1] = target: antigen X (known antigen used as control in the ELISA of Table 1); assay: indirect ELISA, positive control: antigen X coated, anti-X-IgY applied, row A
[2] = target: antigen X (known antigen used as control in the ELISA of Table 1); assay: indirect ELISA, positive control: antigen X coated, anti-X-IgY applied, row B

anti-X-IgY (control IgY against antigen X) (antibody)
OD [1]: 1.33 OD | OD [2]: 1.43 OD
